# B1: GLP1-L1-Fc2-L2-ST (Fc fusion)
# chain: HGEGTFTSDVSSYLEEQAAKEFIAWLVKGGGGGGGSGGGGSGGGGSAVECPPCPAPPVAGPSVFLFPPKPKDTLMISRTPEVTCVVVDVSHEDPEVQFNWYVDGVEVHNAKTKPREEQFNSTFRVVSVLTVVHQDWLNGKEYKCKVSNKGLPAPIEKTISKTKGQPREPQVYTLPPSREEMTKNQVSLTCLVKGFYPSDIAVEWESNGQPENNYKTTPPMLDSDGSFFLYSKLTVDKSRWQQGNVFSCSVMHEALHNHYTQKSLSLSPGGSGGGSGGGGSGGGGSLPETG
# B2: GLP1-L1-Fc2-L2-ST crosslinked with 20 kDa PEG (Fc fusion)
# chain: HGEGTFTSDVSSYLEEQAAKEFIAWLVKGGGGGGGSGGGGSGGGGSAVECPPCPAPPVAGPSVFLFPPKPKDTLMISRTPEVTCVVVDVSHEDPEVQFNWYVDGVEVHNAKTKPREEQFNSTFRVVSVLTVVHQDWLNGKEYKCKVSNKGLPAPIEKTISKTKGQPREPQVYTLPPSREEMTKNQVSLTCLVKGFYPSDIAVEWESNGQPENNYKTTPPMLDSDGSFFLYSKLTVDKSRWQQGNVFSCSVMHEALHNHYTQKSLSLSPGGSGGGSGGGGSGGGGSLPETGGGAA
# modifications: 20 kDa PEG on the added C-terminal GGGAA (GGGAA-PEG joined by sortase A to the T of LPET)
# B3: GLP1-L1-Fc2-L2-ST crosslinked with 40 kDa PEG (Fc fusion)
# chain: B2 chain
# modifications: 40 kDa PEG on the added C-terminal GGGAA (GGGAA-PEG joined by sortase A to the T of LPET)
# Biological target: GLP-1 receptor (GLP-1R) on HEK293/CRE-Luc/GLP1R cells (UniProt P43220 24-463, limits assumed)
# Assay: cell-based or functional assay
row,Binder,"relative activity compared with dulaglutide (CRE-luciferase reporter, HEK293/CRE-Luc/GLP1R cells)"
1,B1,98.1%
2,B2,40.4%
3,B3,32.9%

# Reference: patent US20220000984A1 (JIANGSU GENSCIENCES, published 2022)
